Experimental data reported in patent US20220308072A1.

Key:
[1] = biological target: Recombinant, his tagged full length human frataxin protein (Abcam ab95502) (human) (UniProt Q16595); assay: Simoa sandwich 3-step; capture Ab-3
[2] = biological target: Recombinant, his tagged full length human frataxin protein (Abcam ab95502) (human) (UniProt Q16595); assay: Simoa sandwich 3-step; capture Ab-4
[3] = biological target: Recombinant, his tagged full length human frataxin protein (Abcam ab95502) (human) (UniProt Q16595); assay: Simoa sandwich 2-step; capture Ab-1
[4] = biological target: Recombinant, his tagged full length human frataxin protein (Abcam ab95502) (human) (UniProt Q16595); assay: Simoa sandwich 3-step; capture Ab-1
[5] = biological target: Recombinant, his tagged full length human frataxin protein (Abcam ab95502) (human) (UniProt Q16595); assay: Simoa sandwich 2-step; capture Ab-1; 150 pM SβG
[6] = biological target: Recombinant, his tagged full length human frataxin protein (Abcam ab95502) (human) (UniProt Q16595); assay: Simoa sandwich 2-step (120 min-5 min); capture Ab-1
[7] = biological target: Recombinant, his tagged full length human frataxin protein (Abcam ab95502) (human) (UniProt Q16595); assay: Simoa sandwich 3-step; capture Ab-3; frataxin 100 pg/mL
[8] = biological target: Recombinant, his tagged full length human frataxin protein (Abcam ab95502) (human) (UniProt Q16595); assay: Simoa sandwich 3-step; capture Ab-2; frataxin 100 pg/mL
[9] = biological target: Recombinant, his tagged full length human frataxin protein (Abcam ab95502) (human) (UniProt Q16595); assay: as above; remark: listed apart in the source
[10] = biological target: Recombinant, his tagged full length human frataxin protein (Abcam ab95502) (human) (UniProt Q16595); assay: Simoa sandwich 2-step; capture Ab-2; frataxin 500 pg/mL
[11] = biological target: Recombinant, his tagged full length human frataxin protein (Abcam ab95502) (human) (UniProt Q16595); assay: Simoa sandwich 3-step; capture Ab-3; frataxin 1000 pg/mL
[12] = biological target: Recombinant, his tagged full length human frataxin protein (Abcam ab95502) (human) (UniProt Q16595); assay: Simoa sandwich 2-step; capture Ab-2; frataxin 1000 pg/mL
[13] = biological target: Recombinant, his tagged full length human frataxin protein (Abcam ab95502) (human) (UniProt Q16595); assay: Simoa sandwich 3-step; capture Ab-2; frataxin 1000 pg/mL
[14] = biological target: Recombinant, his tagged full length human frataxin protein (Abcam ab95502) (human) (UniProt Q16595); assay: Simoa sandwich 2-step; capture Ab-1; frataxin 18.5 pg/mL
[15] = biological target: Recombinant, his tagged full length human frataxin protein (Abcam ab95502) (human) (UniProt Q16595); assay: Simoa sandwich; capture Ab-1; no helper beads; frataxin 167 pg/mL
[16] = biological target: Recombinant, his tagged full length human frataxin protein (Abcam ab95502) (human) (UniProt Q16595); assay: Simoa sandwich; capture Ab-1; no helper beads; frataxin 55.6 pg/mL
[17] = biological target: Recombinant, his tagged full length human frataxin protein (Abcam ab95502) (human) (UniProt Q16595); assay: Simoa sandwich; capture Ab-1; no helper beads; frataxin 6.17 pg/mL
[18] = biological target: Recombinant, his tagged full length human frataxin protein (Abcam ab95502) (human) (UniProt Q16595); assay: Simoa sandwich 2-step (120 min-5 min); capture Ab-1; Diluent 1 + 10% NCS
[19] = biological target: Recombinant, his tagged full length human frataxin protein (Abcam ab95502) (human) (UniProt Q16595); assay: Simoa sandwich 2-step (120 min-5 min); capture Ab-1; frataxin 24.7 pg/mL
[20] = biological target: Recombinant, his tagged full length human frataxin protein (Abcam ab95502) (human) (UniProt Q16595); assay: Simoa sandwich 2-step (35 min-5 min); capture Ab-1; with helper beads; frataxin 167 pg/mL
[21] = biological target: Recombinant, his tagged full length human frataxin protein (Abcam ab95502) (human) (UniProt Q16595); assay: Simoa sandwich 2-step (35 min-5 min); capture Ab-1; with helper beads; frataxin 18.5 pg/mL
[22] = biological target: Recombinant, his tagged full length human frataxin protein (Abcam ab95502) (human) (UniProt Q16595); assay: Simoa sandwich 2-step (35 min-5 min); capture Ab-1; with helper beads; frataxin 55.6 pg/mL
[23] = biological target: Recombinant, his tagged full length human frataxin protein (Abcam ab95502) (human) (UniProt Q16595); assay: Simoa sandwich 2-step (120 min-5 min); capture Ab-1; Diluent 1 + 5% NCS; frataxin 111 pg/mL
[24] = biological target: Recombinant, his tagged full length human frataxin protein (Abcam ab95502) (human) (UniProt Q16595); assay: Simoa sandwich 2-step (120 min-5 min); capture Ab-1; Diluent 1 + 5% NCS; frataxin 7.41 pg/mL
[25] = biological target: Recombinant, his tagged full length human frataxin protein (Abcam ab95502) (human) (UniProt Q16595); assay: Simoa sandwich 2-step (120 min-5 min); capture Ab-1; Diluent 1 + 5% NCS; frataxin 37.0 pg/mL
[26] = biological target: Recombinant, his tagged full length human frataxin protein (Abcam ab95502) (human) (UniProt Q16595); assay: Simoa sandwich 2-step (120 min-5 min); capture Ab-1; Diluent 1 + 10% NCS; frataxin 1000 pg/mL

Sequence of UniProt Q16595 (Q16595 42-210): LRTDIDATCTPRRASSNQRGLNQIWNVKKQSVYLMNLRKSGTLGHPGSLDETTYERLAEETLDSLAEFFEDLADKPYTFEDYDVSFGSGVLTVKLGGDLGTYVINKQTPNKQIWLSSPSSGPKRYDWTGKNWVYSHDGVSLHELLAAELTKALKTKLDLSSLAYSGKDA

Ab-3, mouse monoclonal [18A5DB1] to Frataxin (Abcam ab110328) (antibody)
LOD [1]: 11.9 pg/mL | LOD [2]: 1.09 pg/mL | LOD [3]: 0.27 pg/mL | LOD [4]: 0.59 pg/mL | LOD [5]: 0.272 pg/mL | LOD [6]: 0.465 pg/mL | Ave AEB [7]: 0.0152 AEB | S/B [7]: 3.21 | Ave AEB [8]: 2.03 AEB | S/B [8]: 45.8 | Ave AEB [9]: 2.44 AEB | S/B [9]: 38.9 | Ave AEB [10]: 25.1 AEB | S/B [10]: 263 | Ave AEB [11]: 0.0854 AEB | S/B [11]: 18.1 | Ave AEB [12]: 37.3 AEB | S/B [12]: 462 | Ave AEB [13]: 20.7 AEB | S/B [13]: 330 | Ave AEB [14]: 1.98 AEB | S/B [14]: 19.1 | AEB Rep1 [15]: 2.42 AEB | AEB Rep2 [15]: 2.1 AEB | Ave AEB [15]: 2.26 AEB | S/B [15]: 100 | AEB Rep1 [16]: 1.16 AEB | AEB Rep2 [16]: 0.608 AEB | Ave AEB [16]: 0.885 AEB | S/B [16]: 39.1 | AEB Rep1 [17]: 0.118 AEB | AEB Rep2 [17]: 0.141 AEB | Ave AEB [17]: 0.13 AEB | S/B [17]: 5.74 | LOD [18]: 0.759 pg/mL | AEB rep1 [19]: 0.129 AEB | AEB rep2 [19]: 0.117 AEB | AEB rep3 [19]: 0.142 AEB | Ave AEB [19]: 0.129 AEB | S/B [19]: 15.7 | AEB Rep1 [20]: 9.19 AEB | AEB Rep2 [20]: 9.19 AEB | Ave AEB [20]: 9.19 AEB | S/B [20]: 377 | AEB Rep1 [21]: 1.14 AEB | AEB Rep2 [21]: 1.19 AEB | Ave AEB [21]: 1.16 AEB | S/B [21]: 47.8 | AEB Rep1 [22]: 3.47 AEB | AEB Rep2 [22]: 3.28 AEB | Ave AEB [22]: 3.38 AEB | S/B [22]: 139 | Ave AEB [23]: 1.02 AEB | S/B [23]: 93.1 | Ave AEB [24]: 0.156 AEB | S/B [24]: 8.62 | Ave AEB [25]: 0.341 AEB | S/B [25]: 31.1 | Ave AEB [26]: 5.18 AEB | S/B [26]: 482
